We go through 17 molecules from patent US20240270851A1 (US Dept. of Health and Human Services, published 2024).

The target of assay [1] is T1, mouse PD-L1-His (mouse, UniProt Q9EP73 19-237).
T1 construct: Bought recombinant protein; also called mPD-L1; recombinant mouse PD-L1-His; not shown: His tag
As to the kind of experiment: monoclonal phage ELISA. (In general: ELISA stands for enzyme-linked immunosorbent assay.)

For assay [2], the target named is T2, human PD-L1 on MDA-MB-231 cells (human, UniProt Q9NZQ7 19-290).
T2 construct: whole, on cells; also called native PD-L1; human antigen
T2 sequence (Q9NZQ7 19-290): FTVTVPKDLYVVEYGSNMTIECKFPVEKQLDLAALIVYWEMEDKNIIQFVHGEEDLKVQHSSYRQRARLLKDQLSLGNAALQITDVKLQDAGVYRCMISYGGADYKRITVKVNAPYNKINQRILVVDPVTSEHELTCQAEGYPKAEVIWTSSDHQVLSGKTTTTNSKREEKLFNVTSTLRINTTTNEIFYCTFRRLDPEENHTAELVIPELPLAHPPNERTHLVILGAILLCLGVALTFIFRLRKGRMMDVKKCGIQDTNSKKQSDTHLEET
As to the kind of experiment: flow cytometry on MDA-MB-231 cells (column 'Human'). On the technique in general: A flow cytometer gives signals particle by particle.

Assay [3] has as its target T3, mouse PD-L1 on murine melanoma cell line B8979HC (mouse, UniProt Q9EP73 19-290).
T3 construct: whole, on cells; also called native PD-L1; mouse antigen
Briefly: flow cytometry on murine melanoma cells B8979HC (column 'Mouse').

The next assay deals with T4, mouse PD-L1-hFc (mouse, UniProt Q9EP73 19-237, limits assumed).
T4 construct: also called mPD-L1 hFc-tag format; not shown: human Fc tag (hFc)
T4 sequence (Q9EP73 19-237 limits assumed): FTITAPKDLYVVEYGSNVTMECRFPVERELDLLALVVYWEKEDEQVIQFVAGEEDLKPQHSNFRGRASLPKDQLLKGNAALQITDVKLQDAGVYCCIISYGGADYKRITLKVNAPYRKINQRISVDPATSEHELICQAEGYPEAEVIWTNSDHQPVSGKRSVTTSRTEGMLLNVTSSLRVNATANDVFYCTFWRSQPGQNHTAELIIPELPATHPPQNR
As to the kind of experiment: monoclonal phage ELISA on coated antigen, detected with anti-M13-HRP. As to the method:
(§1) The phage ELISA was performed as previously described (Feng et al., Antib Ther 2019; 2(1):1-11). Briefly, a Nunc 96-well Maxisorp plate was coated with 5 μg/ml antigenic proteins, including mouse PD-L1-His, mouse PD-L1-hFc, human PD-L1-His, human PD-L1-hFc, and the irrelevant antigen human IgG and PBS in 50 μl PBS per well overnight at 4° C. The plate was blocked with 2% BSA in PBS for 1 hour at room temperature. Pre-blocked phage supernatant was then added into the plate. The binding activity was determined with a horseradish peroxidase (HRP)-conjugated mouse anti-M13 antibody (GE Healthcare).

Assay [4] deals with T5, human PD-L1-His (human, UniProt Q9NZQ7 19-238).
T5 construct: also called hPD-L1-His; hPD-L1 His-tag format; not shown: His tag
T5 sequence (Q9NZQ7 19-238 limits assumed): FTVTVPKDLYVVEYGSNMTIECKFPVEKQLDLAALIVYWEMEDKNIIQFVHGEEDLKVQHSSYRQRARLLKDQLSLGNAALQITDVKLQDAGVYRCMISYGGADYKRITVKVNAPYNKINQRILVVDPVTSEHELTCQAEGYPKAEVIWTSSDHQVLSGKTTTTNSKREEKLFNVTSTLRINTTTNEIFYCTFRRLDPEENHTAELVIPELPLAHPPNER
The assay is described as above. As to the method: as §1

For assay [5], the target named is T1, mouse PD-L1-His. The assay is described as above. As to the method:
as §1

Another assay deals with T6, human PD-L1-hFc (human, UniProt Q9NZQ7 19-238).
T6 construct: also called hPD-L1 hFc-tag format; not shown: human Fc tag (hFc)
T6 sequence (Q9NZQ7 19-238 limits assumed): as above
Described as above. As to the method:
as §1

The target of assay [6] is T7, human PD-L1 (hPD-L1) protein (human, UniProt Q9NZQ7 19-238).
T7 construct: also called hPD-L1 ECD
T7 sequence (Q9NZQ7 19-238 limits assumed): as above
Briefly: BLI (Octet), PD-L1 protein loaded on a Ni-NTA biosensor, VNAR binding step. On the technique in general: In BLI a coated tip is dipped into the sample, and binding shifts an interference pattern.

The target in assay [7] is T8, peptide #19 of the hPD-L1 ECD peptide array (human).
T8 construct: 18-mer synthetic peptide from human PD-L1
T8 peptide: TTNSKREEKLFNVTSTLR
As to the kind of experiment: peptide-scanning ELISA on 24 coated hPD-L1 ECD peptides, detected with anti-flag-HRP. The method, then:
To predict the binding epitope of anti-PD-L1 nanobodies, a total of 24 peptides were designed based on the hPD-L1 ECD amino acid sequence. Each synthesized peptide is 18 amino acids in length with 9 amino acids of overlap, which allows the minimum antigenic region of hPD-L1 ECD recognized by each VNAR to be narrowed down by step-by-step peptide mapping onto a 9-mer peptide epitope. The ELISA was performed as previously described. In brief, the 24 peptides were coated into individual wells of a 96-well Maxisorp plate. […] The binding activity was determined by ODA450.

The target of another assay is T9, human B7-H3 (human, UniProt Q5ZPR3 29-461, limits assumed).
T9 sequence (looked up): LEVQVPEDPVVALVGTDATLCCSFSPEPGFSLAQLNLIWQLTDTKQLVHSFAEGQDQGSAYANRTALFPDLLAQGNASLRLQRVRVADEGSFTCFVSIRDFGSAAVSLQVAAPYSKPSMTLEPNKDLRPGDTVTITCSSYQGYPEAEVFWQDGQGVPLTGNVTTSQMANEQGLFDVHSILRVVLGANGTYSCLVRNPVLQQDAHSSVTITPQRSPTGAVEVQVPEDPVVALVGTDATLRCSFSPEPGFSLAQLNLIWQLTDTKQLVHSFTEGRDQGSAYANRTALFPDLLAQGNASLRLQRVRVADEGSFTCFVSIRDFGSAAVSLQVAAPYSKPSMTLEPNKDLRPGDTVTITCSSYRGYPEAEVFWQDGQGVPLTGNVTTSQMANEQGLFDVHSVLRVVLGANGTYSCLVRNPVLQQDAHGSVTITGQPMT
As to the kind of experiment: ELISA on coated human B7-H3.

Assay [8] addresses T5, human PD-L1-His. Briefly: BLI (Octet), VNAR-hFc with hPD-L1-His, Ni-NTA sensor; at 100 nM; at a concentration of 100 nM (printed '100 nm').
Assay [9] concerns the target T5, human PD-L1-His. Briefly: BLI (Octet), VNAR-hFc with hPD-L1-His, Ni-NTA sensor; at 50 nM; at a concentration of 50 nM.

T1 sequence (Q9EP73 19-237 limits assumed): as the sequence (Q9EP73 19-237 limits assumed) above
T3 sequence (Q9EP73 19-290): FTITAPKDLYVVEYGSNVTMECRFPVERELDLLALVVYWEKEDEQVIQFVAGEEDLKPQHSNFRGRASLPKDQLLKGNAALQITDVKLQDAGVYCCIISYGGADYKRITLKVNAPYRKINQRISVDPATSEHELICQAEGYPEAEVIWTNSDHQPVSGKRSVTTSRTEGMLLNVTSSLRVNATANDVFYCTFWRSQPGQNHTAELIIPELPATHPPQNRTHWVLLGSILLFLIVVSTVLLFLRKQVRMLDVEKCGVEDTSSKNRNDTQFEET

B1: Shark VNAR A2 (VNAR)
VNAR: ARVDQTPRSVTKETGESLTINCVLRDTSYALGSTYWYRKKLGSTNEESISKGGRYVETVNSGSKTFSLRINDLTVEDSGTYRCKVQTTWSYLSPYKIEFATVYGGGTVVTVN
For the molecule B1, the binding result in the assay with mouse PD-L1-His [1] is “binds”.

B2: Shark VNAR D12 (VNAR)
VNAR: ARVDQTPRSVTKETGESLTINCVLRDTNYALGSTYWYRKKSGSTNEESISKGGRYVETVNSGSKSFSLRINDLTVEDSGTYRCKHQSSWRRQAPRVMEMQTLYGGGTVVTVN
As for B2, the binding result in the assay with mouse PD-L1-His [1] is reported as “binds”.

B3: Shark VNAR A7 (VNAR)
VNAR: ARVDQTPRSVTKETGESLTINCVLRDTSYALGSTYWYRKKLGSTNEESISKGGRYVETVNSGSKSFSLRINDLTVEDSGTYRCKMNQRYPCDNNSWWSLYCGTTVYGGGTVVTVN
Turning to B3, the binding result in the assay with mouse PD-L1-His [1] was “binds”.

B4: Shark VNAR A10 (VNAR)
VNAR: ARVDQTPRSVTKETGESLTINCVLRDTNYALGSTYWYRKKLGSTNEESISKGGRYVETVNSGSKSFSLRINDLTVEDSGTYRCKSTTPWNNLTSFTSERVTIYGGGTVVTVN
B4: the binding result with mouse PD-L1-His [1] is reported as “binds”.

B5: Shark VNAR F5 (VNAR)
VNAR: ARVDQTPRSVTKETGESLTINCVLRDTNYALGSTYWYRKKLGSTNEESISKGGRYVETVNSGSKSFSLRINDLTVEDSGTYRCKNLGHPMYIAGAICRPLPIYGGGTVVTVN
notes: Shark VNAR single-domain antibody
As for B5, the binding result (in assay [2]; in assay [3]; with mouse PD-L1-hFc; in the assay with human PD-L1-His [4]; in the assay with mouse PD-L1-His [5]; with human PD-L1-hFc) was “binds” in each case.

B6: F5-hFc (Fc fusion)
chain: ARVDQTPRSVTKETGESLTINCVLRDTNYALGSTYWYRKKLGSTNEESISKGGRYVETVNSGSKSFSLRINDLTVEDSGTYRCKNLGHPMYIAGAICRPLPIYGGGTVVTVN
notes: VNAR-hFc fusion used on the Octet; also called F5 VNAR-hFc fusion protein; not shown: human Fc (hFc)
As for B6, in assay [6], the binding result is recorded as “binds”.

B7: F5-His-flag (VNAR)
VNAR: ARVDQTPRSVTKETGESLTINCVLRDTNYALGSTYWYRKKLGSTNEESISKGGRYVETVNSGSKSFSLRINDLTVEDSGTYRCKNLGHPMYIAGAICRPLPIYGGGTVVTVN
notes: Soluble VNAR F5 with His and flag tags, used at 5 ug/ml in the peptide-scanning ELISA; also called nanobody F5 (peptide scanning); not shown: His tag and flag tag
For B7, the binding result in [7] is reported as “binds”.

B8: Shark VNAR B2 (VNAR)
VNAR: ARVDQTPRSVTKETGESLTINCVLRDSSYALGSTYWYRKKSGSTNEESISKGGRYVETVNSGSKSFSLRINDLTVEDSGTYRCKYTSRLRREGPLSWDGNTVYGGGTVVTVN
notes: Shark VNAR single-domain antibody from the semi-synthetic 18AA CDR3 library; also called B2 nanobody; B2 clone
On to B8, for which the binding result in the assay with human B7-H3 is given as “no binding”; in assay [3] it was “binds”; in the assay with mouse PD-L1-hFc, “binds”; with mouse PD-L1-His [5], “binds”.

B9: B2-hFc (Fc fusion)
chain: ARVDQTPRSVTKETGESLTINCVLRDSSYALGSTYWYRKKSGSTNEESISKGGRYVETVNSGSKSFSLRINDLTVEDSGTYRCKYTSRLRREGPLSWDGNTVYGGGTVVTVN
notes: also called B2 VNAR-hFc fusion protein; not shown: human Fc (hFc)
Turning to B9, the values for the Kd with human PD-L1-His [8] and with human PD-L1-His [9] were 1.7 nM and 1.4 nM, respectively.

B10: B2-His-flag (VNAR)
VNAR: ARVDQTPRSVTKETGESLTINCVLRDSSYALGSTYWYRKKSGSTNEESISKGGRYVETVNSGSKSFSLRINDLTVEDSGTYRCKYTSRLRREGPLSWDGNTVYGGGTVVTVN
notes: Soluble VNAR B2 with His and flag tags, used at 5 ug/ml in the peptide-scanning ELISA; also called nanobody B2 (peptide scanning); not shown: His tag and flag tag
Consider B10, for which the binding result in assay [7] is reported as “binds”.

B11: Shark VNAR A1 (VNAR)
VNAR: ARVDQTPRSVTKETGESLTINCVLRDTNYALGSTYWYRKKSGSTNEESISKGGRYVETVNSGSKSFSLRINDLTVEDSGTYRCKTSSKPLLVSHNVWSAWTEYGGGTVVTVN
On to B11, for which the binding result with mouse PD-L1-His [1] is listed as “binds”.

B12: Shark VNAR A11 (VNAR)
VNAR: ARVDQTPRSVTKETGESLTINCVLRDTSYALGSTYWYRKKSGSTNEESISKGGRYVETVNSGSKSFSLRINDLTVEDSGTYRCKFKSNTEFLNPLTVSMSTIYGGGTVVTVN
notes: as for B5
Take B12: the binding result in the assay with mouse PD-L1-hFc and with mouse PD-L1-His [5] was “binds” each time.

B13: A11-His-flag (VNAR)
VNAR: ARVDQTPRSVTKETGESLTINCVLRDTSYALGSTYWYRKKSGSTNEESISKGGRYVETVNSGSKSFSLRINDLTVEDSGTYRCKFKSNTEFLNPLTVSMSTIYGGGTVVTVN
notes: Soluble VNAR A11 with His and flag tags, used at 5 ug/ml in the peptide-scanning ELISA; also called nanobody A11 (peptide scanning); not shown: His tag and flag tag
In the case of B13, the binding result in assay [7] is “no binding (tested: 5 µg/ml)”.

B14: Shark VNAR A6 (VNAR)
VNAR: ARVDQTPQTITKETGESLTINCVLRDTSYALGSTYWYRKKSGSTNEESISKGGRYVETVNSGSKSFSLRINDLRVEDSGTYRCKYSSSWQKATEGVWEAMTEYGGGTVVTVN
B14: the binding result in the assay with mouse PD-L1-His [1] was “binds”.

B15: Shark VNAR C4 (VNAR)
VNAR: ARVDQTPRSVTKETGESLTINCVLRDTNYALGSTYWYRKKSGSTNEESISKGGRYVETVNSGSKSFSLRINDLTVEDSGTYRCKQSASLWIPNLLRWVPVISYGGGTVVTVN
Take B15: in the assay with mouse PD-L1-His [1], the binding result was “binds”.

B16: Shark VNAR A9 (VNAR)
VNAR: ARVDQTPQTITKETGESLTINCVLRDTNYALGSTYWYRKKLGSTNEESISKGGRYVETVNSGSKSFSLRINDLTVEDSGTYRCKNTSPWLTYSPWTVSGQTSYGGGTVVTVN
Turning to B16, in the assay with mouse PD-L1-His [1], the binding result is on record as “binds”.

B17: Shark VNAR A3 (VNAR)
VNAR: ARVDQTPQTITKETGESLTINCVLRDSNYALGSTYWYRKKSGSTNEESISKGGRYVETVNSGSKSFSLRINDLTVEDSGTYRCKTQKAIPCNMNGYVCGVTIYGGGTVVTVN
On to B17, for which, in the assay with mouse PD-L1-His [1], the binding result is given as “binds”.

Usually Kd stands for the constant that tells how readily two partners part at equilibrium.
